Assay results: patent publication US20200069786A1, “COMPOSITION AND PROCESS FOR PREPARING VACCINE” (TREOS BIO ZRT., priority 2018, published 2020)
Read-outs that look alike come from different tables or passages of the source.

Key:
[1] = test system: metastatic ovarian adenocarcinoma; test: Patient-A clinical outcome and tumor MRI; type: in vivo, human
From the text: 2017-2018: Patient-A received 8 cycles of vaccination as add-on therapy, and lived 17 months (528 days) after start of the treatment. […] They died in October 2018.
Patient' tumor MRI findings (Baseline Apr. 15, 2016) (BL: baseline for tumor response evaluation on FIG. 22) Disease was confined primarily to liver and lymph nodes. The use of MRI limits detection of lung (pulmonary) metastasis May 2016-January 2017: Olaparib treatment (FU1: follow up 1 on FIG. 22) Dec. […] Peritoneal carcinomatosis with increased amount of ascites. Progressive hepatic tumor and lymph node
Jul. 26, 2017 (after the 2nd Cycle of PIT): (FU4 on FIG. 22) Progression/Pseudo-Progression • Rapid progression in lymph nodes, hepatic, retroperitoneal and thoracic areas, significant pleural fluid and ascites. Initiate Carboplatin, Gemcitabine, Avastin. Sep. […] Nov. […] Remission in hepatic, retroperitoneal area and lymph nodes

TSA = details: cited from earlier work
[2] = test system: subjects of 64 clinical studies; details: published clinical trials, cited from earlier work; for IRR: proportion of subjects in the study population with T cell responses induced by the study vaccine
[3] = FU1, Olaparib treatment May 2016-January 2017
[4] = FU2, Dec. 25, 2016, before PIT vaccine treatment
[5] = FU3, Apr. 6, 2017, after TOPO protocol
[6] = TSA expression rate in Esophageal
[7] = TSA expression rate in MELANOMA
[8] = TSA expression rate in PROSTATE cancer
[9] = TSA expression rate in GASTRIC cancer

Molecule: O=C(c1cc(Cc2n[nH]c(=O)c3ccccc23)ccc1F)N1CCN(C(=O)C2CC2)CC1 [Olaparib]
- SUM of lesions (% Δ from BL) [1, 3]: −66.3%
- TL1 (% Δ from BL) [1, 3]: −56.1%
- TL2 (% Δ from BL) [1, 3]: −100.0%
- TL3 (% Δ from BL) [1, 3]: −59.4%
- TL4 (% Δ from BL) [1, 3]: −65.8%
- SUM of lesions (% Δ from BL) [1, 4]: −76.0%
- TL1 (% Δ from BL) [1, 4]: −44.4%
- TL2 (% Δ from BL) [1, 4]: −100.0%
- TL3 (% Δ from BL) [1, 4]: −62.3%
- TL4 (% Δ from BL) [1, 4]: −100.0%

Molecule: CC[C@@]1(O)C(=O)OCc2c1cc1n(c2=O)Cc2cc3c(CN(C)C)c(O)ccc3nc2-1 [TOPO protocol]
- SUM of lesions (% Δ from BL) [1, 5]: −68.9%
- TL1 (% Δ from BL) [1, 5]: −44.8%
- TL2 (% Δ from BL) [1, 5]: −47.1%
- TL3 (% Δ from BL) [1, 5]: −62.0%
- TL4 (% Δ from BL) [1, 5]: −100.0%

Molecule: BAGE-1 (RLMKEESPVVSWRLEPEDGTALCFIF; UniProt Q13072 18-43, looked up)
- TSA Expression Rate (ER) (TSA; BREAST): 9%
- Expression Rate (ER) % (TSA; TSA expression rate in CRC): 0%
- Expression Rate (ER) % (TSA; [6]): 6%
- Expression Rate (ER) % (TSA; TSA expression rate in HEAD and NECK): 6%
- Expression Rate (ER) % (TSA; TSA expression rate in Kidney): 0%
- Expression Rate (ER) % (TSA; TSA expression rate in LUNG cancer): 10%
- Expression Rate (ER) % (TSA; [7]): 26%
- Expression Rate (ER) % (TSA; [8]): 0%

Molecule: BAGE-5 (RLMKEESPVVSWRLEPEDGTALCFIF; UniProt Q86Y27 18-43, looked up)
- Expression Rate (ER) % (TSA; [7]): 9%

Molecule: CASC5
- TSA Expression Rate (ER) (TSA; LUNG): 41%
- TSA Expression Rate (ER) (TSA; PANCREATIC): 27%

Molecule: CDCA1
- TSA Expression Rate (ER) (TSA; BREAST): 64%
- TSA Expression Rate (ER) (TSA; HCC): 100%
- TSA Expression Rate (ER) (TSA; LUNG): 85%
- Expression Rate (ER) % (TSA; TSA expression rate in BLADDER cancer): 100%
- Expression Rate (ER) % (TSA; TSA expression rate in CRC): 40%
- Expression Rate (ER) % (TSA; TSA expression rate in Cervical cancer): 18%
- Expression Rate (ER) % (TSA; [6]): 22%
- Expression Rate (ER) % (TSA; [9]): 0%
- Expression Rate (ER) % (TSA; TSA expression rate in Kidney): 100%
- Expression Rate (ER) % (TSA; [8]): 85%

Molecule: DBPC
- TSA Expression Rate (ER) (TSA; BREAST): 50%
- TSA Expression Rate (ER) (TSA; HCC): 40%
- TSA Expression Rate (ER) (TSA; LUNG): 30%
- TSA Expression Rate (ER) (TSA; OVARIAN): 20%
- TSA Expression Rate (ER) (TSA; PANCREATIC): 60%
- Expression Rate (ER) % (TSA; TSA expression rate in CRC): 90%
- Expression Rate (ER) % (TSA; [9]): 50%
- Expression Rate (ER) % (TSA; TSA expression rate in Kidney): 10%
- Expression Rate (ER) % (TSA; [8]): 40%

Molecule: DCAF12
- TSA Expression Rate (ER) (TSA; LUNG): 89%
- Expression Rate (ER) % (TSA; [8]): 59%

Molecule: DKK1
- TSA Expression Rate (ER) (TSA; PANCREATIC): 84%

Molecule: DMRT1
- Expression Rate (ER) % (TSA; [8]): 24%

Molecule: EPHA2
- TSA Expression Rate (ER) (TSA; BRAIN): 95%
- Expression Rate (ER) % (TSA; TSA expression rate in PEDIATRIC): 100%

Molecule: EZH2
- TSA Expression Rate (ER) (TSA; BRAIN): 100%

Molecule: Her2/neu peptide vaccine (p688) (RRLLQETEL; UniProt P04626 688-696, looked up, fragment)
- IRR [2]: 31%

Molecule: Her2/neu peptide vaccine (p971) (ELVSEFSRM; UniProt P04626 971-979, looked up, fragment)
- IRR [2]: 54%

Molecule: Iplilimumab (NYESO-1 specific response)
- IRR [2]: 72%
- ORR ([2]; proportion of subjects with objective response (complete and partial response) after vaccination): 25%

Molecule: JARID1B
- TSA Expression Rate (ER) (TSA; BREAST): 76%
- TSA Expression Rate (ER) (TSA; HCC): 29%
- TSA Expression Rate (ER) (TSA; LUNG): 55%
- TSA Expression Rate (ER) (TSA; OVARIAN): 71%
- Expression Rate (ER) % (TSA; TSA expression rate in LEUKEMIAS): 60%
- Expression Rate (ER) % (TSA; [7]): 100%
- Expression Rate (ER) % (TSA; [8]): 100%
